{
  "source": "paper PMC3742456",
  "biological_target": "c-kit receptor (CD117), expressed on BJAB c-kit cells (Mus musculus) (UniProt P05532)",
  "sequence (P05532 25-979)": "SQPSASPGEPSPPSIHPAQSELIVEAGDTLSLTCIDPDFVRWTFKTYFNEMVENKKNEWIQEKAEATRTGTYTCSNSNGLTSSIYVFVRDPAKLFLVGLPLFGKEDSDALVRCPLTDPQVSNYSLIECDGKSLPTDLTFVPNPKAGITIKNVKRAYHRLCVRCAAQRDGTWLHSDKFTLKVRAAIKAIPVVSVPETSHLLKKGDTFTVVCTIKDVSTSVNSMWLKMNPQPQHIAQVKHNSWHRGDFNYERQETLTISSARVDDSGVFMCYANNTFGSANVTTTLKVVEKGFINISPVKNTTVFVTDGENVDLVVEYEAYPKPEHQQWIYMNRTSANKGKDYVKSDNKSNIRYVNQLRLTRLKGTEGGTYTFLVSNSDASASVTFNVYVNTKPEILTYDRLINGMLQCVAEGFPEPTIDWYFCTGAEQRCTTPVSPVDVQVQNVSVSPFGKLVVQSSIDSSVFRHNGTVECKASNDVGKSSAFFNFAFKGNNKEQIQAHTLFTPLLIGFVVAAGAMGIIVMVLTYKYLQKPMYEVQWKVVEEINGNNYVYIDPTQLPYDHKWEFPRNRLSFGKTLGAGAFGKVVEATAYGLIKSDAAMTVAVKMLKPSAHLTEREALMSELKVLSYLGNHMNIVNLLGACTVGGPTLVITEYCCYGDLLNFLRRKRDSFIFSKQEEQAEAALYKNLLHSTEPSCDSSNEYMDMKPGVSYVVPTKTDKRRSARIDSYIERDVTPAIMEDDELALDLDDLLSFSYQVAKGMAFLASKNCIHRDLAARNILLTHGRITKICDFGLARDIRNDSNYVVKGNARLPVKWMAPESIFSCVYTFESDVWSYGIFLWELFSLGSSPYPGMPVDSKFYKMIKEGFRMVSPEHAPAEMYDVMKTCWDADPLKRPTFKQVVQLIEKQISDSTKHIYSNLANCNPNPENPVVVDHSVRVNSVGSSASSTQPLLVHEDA",
  "experiment": "flow cytometry (cell titration, 0-100 nM)",
  "conditions": "apparent Kd on BJAB c-kit cells, background subtracted; Aptamer folded in SELEX buffer (DPBS with Ca/Mg, 5 mM MgCl2, 0.45% glucose, tRNA), 95 C then …; binding in DPBS with Ca/Mg + 0.1% BSA, 1 h on ice; FAM",
  "data": [
    {"sequence": "AGCAGCACAGAGGTCAGATGGCTCAACGCGGGACGGCTCTCCCATTGACCCTATGCGTGCTACCGTGAA [Kit-129]", "values": [
      {"measurement": "Kd", "value": 12.2, "unit": "nM"}
    ]}
  ]
}
